Measured values taken from patent publication US20250270566A1, “DUAL-SPECIFICITY RNA ATPAMERS FOR REGULATING O-GLCNACYLATION” (University of Georgia Research Foundation, Inc., published 2025).
Blank lines part the entries; values can stand above or below the binder they belong to.

Experiments:
[1] = target: T1, KAT2A (GCN5) (UniProt Q92830 2-837); assay: PLA with antibodies to β-catenin and KAT2A, confocal images of HEK293T cells, -Wnt, T1 • bc339 or 3JB8F+12
T1 construct: Endogenous protein in HEK293T cells; also called KAT2A/GCN5L2
T1 sequence (Q92830 2-837 limits assumed): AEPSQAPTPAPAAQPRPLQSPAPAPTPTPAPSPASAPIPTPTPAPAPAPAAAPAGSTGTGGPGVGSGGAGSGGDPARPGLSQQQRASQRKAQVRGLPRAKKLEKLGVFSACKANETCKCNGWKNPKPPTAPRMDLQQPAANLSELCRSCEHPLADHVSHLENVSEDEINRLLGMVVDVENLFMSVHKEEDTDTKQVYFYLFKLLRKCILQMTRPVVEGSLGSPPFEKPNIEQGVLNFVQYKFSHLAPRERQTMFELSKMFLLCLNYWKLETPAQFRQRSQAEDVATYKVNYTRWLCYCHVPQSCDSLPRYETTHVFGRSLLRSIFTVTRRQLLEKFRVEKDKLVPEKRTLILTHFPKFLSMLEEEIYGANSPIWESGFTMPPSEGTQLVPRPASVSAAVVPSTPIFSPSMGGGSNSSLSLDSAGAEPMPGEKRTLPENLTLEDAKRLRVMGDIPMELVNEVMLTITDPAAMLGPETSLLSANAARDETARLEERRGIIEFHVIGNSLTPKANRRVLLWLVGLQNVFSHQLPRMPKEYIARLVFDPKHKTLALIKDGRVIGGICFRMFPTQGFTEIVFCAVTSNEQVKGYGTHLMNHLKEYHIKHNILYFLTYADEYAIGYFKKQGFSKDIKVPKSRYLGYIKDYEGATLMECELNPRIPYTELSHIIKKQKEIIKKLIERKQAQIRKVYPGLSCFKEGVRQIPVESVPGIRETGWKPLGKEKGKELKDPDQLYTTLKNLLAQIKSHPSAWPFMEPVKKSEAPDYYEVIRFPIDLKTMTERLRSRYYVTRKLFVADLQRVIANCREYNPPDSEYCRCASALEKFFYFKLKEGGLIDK
Experimental: FIGS. 12A to 12P show O-GlcNAc regulates β-catenin's interactions with KAT2A. FIGS. 12A to 12H contain confocal images of Proximity Ligation Assay (PLA) on HEK293T cells. Cells were transfected with plasmids encoding the control aptamers (T1·bc339) or a DS aptamer (3JB8F+12 or 3JB8R+12) and stimulated with regular (−Wnt) or Wnt3A-conditioned (+Wnt) medium. PLA was performed with antibodies targeting […] and KAT2A or H3K9ac. In FIGS. 12C and 12D, cells were treated with 50 μM Ac5S for 20 hr. FIGS. 12I to 12P show quantification of FIGS. 12A to 12H. PLA puncta in nucleus were counted and normalized to the number of nuclei in each view. Student's t-test was performed. Data are represented as mean±SD. ns, p≥0.05; ***, p<0.001; ****, p<0.0001. N=10. T1·bc339—Individual T1 and bc339 aptamers (control). 3JB8F+12/R+12—DS aptamers (T1-linker-bc339) with folded linkers.

[2] = target: T2, EP300 (UniProt Q09472 2-2414); assay: PLA with antibodies to β-catenin and EP300, confocal images of HEK293T cells, -Wnt, T1 • bc339 or 3JB8F+12
T2 construct: Endogenous protein in HEK293T cells
T2 sequence (Q09472 2-2414 limits assumed): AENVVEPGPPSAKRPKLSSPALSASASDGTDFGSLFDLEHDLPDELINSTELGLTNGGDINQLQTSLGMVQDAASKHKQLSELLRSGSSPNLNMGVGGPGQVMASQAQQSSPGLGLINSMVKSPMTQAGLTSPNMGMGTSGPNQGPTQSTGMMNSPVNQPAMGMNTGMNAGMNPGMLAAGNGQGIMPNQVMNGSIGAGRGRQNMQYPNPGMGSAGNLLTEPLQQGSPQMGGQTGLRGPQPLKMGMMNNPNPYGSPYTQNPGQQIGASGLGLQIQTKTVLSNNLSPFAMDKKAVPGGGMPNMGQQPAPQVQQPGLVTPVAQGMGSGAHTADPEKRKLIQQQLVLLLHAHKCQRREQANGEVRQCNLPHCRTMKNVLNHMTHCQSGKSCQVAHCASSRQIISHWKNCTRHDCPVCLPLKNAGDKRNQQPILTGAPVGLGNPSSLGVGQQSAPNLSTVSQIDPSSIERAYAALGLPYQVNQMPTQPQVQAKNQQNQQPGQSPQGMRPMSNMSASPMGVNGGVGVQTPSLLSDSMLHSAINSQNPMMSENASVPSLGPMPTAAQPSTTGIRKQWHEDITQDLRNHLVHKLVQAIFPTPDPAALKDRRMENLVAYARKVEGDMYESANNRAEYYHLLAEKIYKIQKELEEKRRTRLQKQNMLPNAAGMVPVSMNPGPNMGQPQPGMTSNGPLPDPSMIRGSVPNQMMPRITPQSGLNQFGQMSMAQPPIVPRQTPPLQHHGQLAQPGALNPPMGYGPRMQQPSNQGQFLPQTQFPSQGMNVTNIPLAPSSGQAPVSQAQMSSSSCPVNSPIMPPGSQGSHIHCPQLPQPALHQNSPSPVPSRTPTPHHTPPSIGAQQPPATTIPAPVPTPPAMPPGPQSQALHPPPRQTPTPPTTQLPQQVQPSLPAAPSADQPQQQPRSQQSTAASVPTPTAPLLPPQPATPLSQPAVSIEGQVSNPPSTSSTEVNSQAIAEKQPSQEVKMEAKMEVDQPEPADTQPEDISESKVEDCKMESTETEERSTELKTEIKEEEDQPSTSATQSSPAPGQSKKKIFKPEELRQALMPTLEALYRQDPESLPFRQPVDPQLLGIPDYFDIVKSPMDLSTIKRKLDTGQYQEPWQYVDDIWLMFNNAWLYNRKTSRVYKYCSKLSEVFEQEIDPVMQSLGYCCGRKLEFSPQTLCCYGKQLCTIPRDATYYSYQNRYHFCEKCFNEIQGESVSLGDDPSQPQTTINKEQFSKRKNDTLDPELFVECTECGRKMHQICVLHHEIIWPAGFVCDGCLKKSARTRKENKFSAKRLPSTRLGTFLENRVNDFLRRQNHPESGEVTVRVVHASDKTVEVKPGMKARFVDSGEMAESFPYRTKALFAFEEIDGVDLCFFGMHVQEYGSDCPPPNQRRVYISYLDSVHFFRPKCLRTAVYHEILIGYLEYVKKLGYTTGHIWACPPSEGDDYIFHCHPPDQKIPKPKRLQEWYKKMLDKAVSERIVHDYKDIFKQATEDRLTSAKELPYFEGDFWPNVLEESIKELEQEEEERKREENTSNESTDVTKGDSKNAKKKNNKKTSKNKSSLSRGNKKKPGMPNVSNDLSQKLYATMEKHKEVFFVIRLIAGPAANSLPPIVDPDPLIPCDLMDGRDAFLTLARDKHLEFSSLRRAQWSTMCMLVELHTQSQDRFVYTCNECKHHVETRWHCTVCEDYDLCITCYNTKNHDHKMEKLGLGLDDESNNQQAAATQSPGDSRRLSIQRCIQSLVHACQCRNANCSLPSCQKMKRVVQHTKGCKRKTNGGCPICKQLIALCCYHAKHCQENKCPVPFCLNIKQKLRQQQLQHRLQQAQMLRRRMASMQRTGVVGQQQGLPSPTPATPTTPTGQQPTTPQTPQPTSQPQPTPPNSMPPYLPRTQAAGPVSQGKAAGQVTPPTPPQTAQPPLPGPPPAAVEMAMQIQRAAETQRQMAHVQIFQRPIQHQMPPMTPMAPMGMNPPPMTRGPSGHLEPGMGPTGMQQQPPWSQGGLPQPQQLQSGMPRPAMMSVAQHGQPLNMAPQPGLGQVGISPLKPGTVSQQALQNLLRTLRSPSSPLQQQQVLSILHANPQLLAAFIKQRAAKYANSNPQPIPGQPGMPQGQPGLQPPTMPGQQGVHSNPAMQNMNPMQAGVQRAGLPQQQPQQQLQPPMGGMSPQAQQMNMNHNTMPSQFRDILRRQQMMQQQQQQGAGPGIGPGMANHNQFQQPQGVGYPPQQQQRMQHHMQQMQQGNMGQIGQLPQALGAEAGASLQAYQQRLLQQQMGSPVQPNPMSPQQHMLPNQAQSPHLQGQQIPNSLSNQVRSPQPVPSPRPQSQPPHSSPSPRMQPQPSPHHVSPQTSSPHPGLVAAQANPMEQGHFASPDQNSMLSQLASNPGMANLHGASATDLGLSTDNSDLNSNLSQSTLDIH
Experimental: FIGS. 13A to 13P show O-GlcNAc regulates β-catenin's interactions with other epigenetic modifiers and β-TrCP. FIGS. 13A to 13F contain confocal images of PLA on HEK293T cells. Cells were transfected with plasmids encoding the control aptamers (T1·bc339) or a DS aptamer (3JB8F+12), and stimulated with regular (−Wnt) or Wnt3A-conditioned (+Wnt) medium. PLA was performed with antibodies targeting β-catenin and EP300, KAT5, or β-TrCP. FIGS. 13G and 13H contain confocal images of the negative control experiments of PLA. Cells were treated with regular (−Wnt) or Wnt3A-conditioned (+Wnt) medium. PLA was performed with the antibody targeting β-catenin and normal rabbit IgG. FIGS. 13I to 13P show quantification of FIGS. 13A to 13H. Nuclear or total PLA puncta were counted and normalized to the number of nuclei in each view. N=10 (I to N) or N=5 (O to P). Student's t-test was performed. Data are represented as mean±SD. **, p<0.01; ***, p<0.001. T1·bc339—Individual T1 and bc339 aptamers (control). 3JB8F+12—A DS aptamer (T1-linker-bc339) with a folded linker.

[3] = target: T3, ncOGT full-length (OGT-FL, nucleocytoplasmic O-GlcNAc transferase) (UniProt O15294 O15294:1-1046); assay: SPR; ABB (20 mM Tris-HCl, 150 mM NaCl, 5 mM MgCl2, 0.05% Tween-20, pH 7.5), 25 C, 1:1 model; details: tags: His tag (Ni-NTA purified, pET24a-ncOGT-FL, E. coli)
T3 sequence: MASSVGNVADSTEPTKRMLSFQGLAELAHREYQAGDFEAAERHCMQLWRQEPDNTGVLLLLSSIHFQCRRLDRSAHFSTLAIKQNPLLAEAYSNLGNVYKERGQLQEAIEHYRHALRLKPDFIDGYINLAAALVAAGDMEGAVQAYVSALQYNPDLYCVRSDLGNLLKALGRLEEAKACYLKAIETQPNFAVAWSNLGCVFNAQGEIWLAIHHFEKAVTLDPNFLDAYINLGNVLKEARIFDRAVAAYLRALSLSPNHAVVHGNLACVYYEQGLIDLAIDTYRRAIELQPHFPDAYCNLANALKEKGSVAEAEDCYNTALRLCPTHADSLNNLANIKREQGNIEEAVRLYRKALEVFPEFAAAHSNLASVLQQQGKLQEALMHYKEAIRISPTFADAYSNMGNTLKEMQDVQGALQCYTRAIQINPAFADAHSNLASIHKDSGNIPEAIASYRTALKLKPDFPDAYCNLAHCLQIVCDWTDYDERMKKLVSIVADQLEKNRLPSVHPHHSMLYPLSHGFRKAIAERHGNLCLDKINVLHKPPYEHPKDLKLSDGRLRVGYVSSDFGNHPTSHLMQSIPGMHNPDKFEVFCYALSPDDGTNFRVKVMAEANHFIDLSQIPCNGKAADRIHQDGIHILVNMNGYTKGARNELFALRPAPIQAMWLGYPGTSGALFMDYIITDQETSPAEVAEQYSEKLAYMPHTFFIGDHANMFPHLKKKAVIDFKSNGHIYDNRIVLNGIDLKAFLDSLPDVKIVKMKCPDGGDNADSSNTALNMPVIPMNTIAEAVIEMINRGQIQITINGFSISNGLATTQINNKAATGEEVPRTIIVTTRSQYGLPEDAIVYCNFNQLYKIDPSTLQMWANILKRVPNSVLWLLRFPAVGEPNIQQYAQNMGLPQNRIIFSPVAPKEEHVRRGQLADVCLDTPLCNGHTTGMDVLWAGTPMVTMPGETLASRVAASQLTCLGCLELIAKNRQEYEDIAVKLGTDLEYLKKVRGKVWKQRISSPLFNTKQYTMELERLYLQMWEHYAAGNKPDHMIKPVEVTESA
Experimental: T1 was included in the indicated reactions (orange) from 2 μM to 7.8 nM in 2× serial dilution. Data were normalized to the positive control reaction (red). One-way ANOVA test was performed. […] OGT was immunoprecipitated from lysate of T1-expressing cells, using buffers with Mg²⁺ (left) or without Mg²⁺ (right). Then the OGT-bound T1 was quantified by RT-qPCR. Data were normalized to the IgG groups. One-way ANOVA test was performed. RT—Reverse Transcriptase. N=3. […] N=3. […] Cells stably expressing T1 were treated with ActD for the indicated periods. Abundance of T1 was quantified by RT-qPCR (left) and normalized to that of 18S rRNA (right) and initial timepoint (T=0). Data were fitted to a one-phase decay model (curve). N=3. Data are represented as mean±SD. ns, p≥0.05; ****, p<0.0001.
For SPR, Multi Cycle Kinetics was performed according to (Chang, A. L., et al. Methods Enzymol 2014 549:451-466) on a Biacore T100 (GE Healthcare/Cytiva) instrument at 25° C. In assay preparation, an amine-modified T24 DNA linker (NH2-T24) was immobilized to approximately 100 RU in both reference and test flow cells on a sensorchip PEG (GE Healthcare/Cytiva 29239810), using the Amine Coupling Kit (GE Healthcare/Cytiva BR100050). […] Data was analyzed using the Biacore Evaluation Software (GE Healthcare/Cytiva), where the overlaid sensorgrams were fitted into a 1:1 binding model.

[4] = target: T3, ncOGT full-length (OGT-FL, …); assay: FP filter; radiolabeled dot blot (nitrocellulose filter), ABB with 5 mM MgCl2, 37 C, yeast tRNA and BSA competitors; details: tags: His tag (Ni-NTA purified, pET24a-ncOGT-FL, E. coli); label: 5'-32P (dot blot)
Experimental: Radiolabeled RNA was diluted in ABB, denatured at 65° C. for 5 min and re-folded at room temperature for 5 min. Then 100 nM of RNA was incubated with multiple concentrations (see Figure legends) of purified ncOGT at 37° C. for 30 min. The volume of each assay was 50 μL. 1 μM yeast tRNA (Invitrogen AM7119) and 50 μg/mL Bovine Serum Albumin (BSA, NEB B9001S) were included as non-specific competitors. After incubation, the reactions were filtered sequentially through a nitrocellulose membrane (Amersham 10600042) and a Nylon membrane (Invitrogen AM10102), on a Bio-Dot Microfiltration Apparatus (Bio-Rad 170-6545). Membranes were washed with 100 μL ABB to remove unbound RNA. Washed membranes were air-dried and exposed to a film (Amersham 28906836) for 2 hr. The film was developed and scanned, and the image was analyzed with Fiji (Schindelin, J., et al. Nat Methods 2012 9:676-682). Quantified data was fitted into a Michaelis-Menten model using GraphPad Prism.

[5] = target: β-catenin (UniProt P35222 P35222:1-781); assay: SPR; intracellular buffer (20 mM HEPES, 110 mM KCl, 10 mM NaCl, 0.4 mM MgCl2, 5 mM KH2PO4, pH 7.2), 25 C; details: tags: His tag (Ni-NTA purified, pET28a-β-catenin, E. coli)
Experimental: Total PLA puncta was counted and normalized to the number of nuclei in each view. Student's t-test was performed. N=8. […] Nucleus and cytoplasm of cells stably expressing 3JB8F+12 was isolated, and RNA in each fraction was quantified by RT-qPCR. RNA abundances were normalized to that of 3JB8F+12 in whole cell lysate (purple bar in upper panel). NEAT1 is a nuclear RNA control, and GAPDH is a cytoplasmic RNA control. Cyt.—Cytoplasm. Nuc.—Nucleus. W.C.—Whole Cell. N=4. T1·bc339—Individual T1 and bc339 aptamers (control). NL8F50/70/100—DS aptamers (T1-linker-bc339) with flexible linkers of 50/70/100 nt. 3JB8F—DS aptamers (T1-linker-bc339) with folded linkers. +4/+12, serial additions (bp) into the folded linker. Quantitated data are normalized to the control group (T1·bc339). Aptamers were expressed from plasmids, and One-way ANOVA test was performed unless indicated. Data are represented as mean±SD. ns, p≥0.05; *, p<0.05; **, p<0.01; ***, p<0.001; ****, p<0.0001.
For SPR, Multi Cycle Kinetics was performed according to (Chang, A. L., et al. Methods Enzymol 2014 549:451-466) on a Biacore T100 (GE Healthcare/Cytiva) instrument at 25° C. […] Data was analyzed using the Biacore Evaluation Software (GE Healthcare/Cytiva), where the overlaid sensorgrams were fitted into a 1:1 binding model.

binding result [1]: binds
binding result [2]: binds
B1: β-catenin (endogenous, in HEK293T cells) (other, UniProt P35222 2-781, looked up)
chain: ATQADLMELDMAMEPDRKAAVSHWQQQSYLDSGIHSGATTTAPSLSGKGNPEEEDVDTSQVLYEWEQGFSQSFTQEQVADIDGQYAMTRAQRVRAAMFPETLDEGMQIPSTQFDAAHPTNVQRLAEPSQMLKHAVVNLINYQDDAELATRAIPELTKLLNDEDQVVVNKAAVMVHQLSKKEASRHAIMRSPQMVSAIVRTMQNTNDVETARCTAGTLHNLSHHREGLLAIFKSGGIPALVKMLGSPVDSVLFYAITTLHNLLLHQEGAKMAVRLAGGLQKMVALLNKTNVKFLAITTDCLQILAYGNQESKLIILASGGPQALVNIMRTYTYEKLLWTTSRVLKVLSVCSSNKPAIVEAGGMQALGLHLTDPSQRLVQNCLWTLRNLSDAATKQEGMEGLLGTLVQLLGSDDINVVTCAAGILSNLTCNNYKNKMMVCQVGGIEALVRTVLRAGDREDITEPAICALRHLTSRHQEAEMAQNAVRLHYGLPVVVKLLHPPSHWPLIKATVGLIRNLALCPANHAPLREQGAIPRLVQLLVRAHQDTQRRTSMGGTQQQFVEGVRMEEIVEGCTGALHILARDVHNRIVIRGLNTIPLFVQLLYSPIENIQRVAAGVLCELAQDKEAAEAIEAEGATAPLTELLHSRNEGVATYAAAVLFRMSEDKPQDYKKRLSVELTSSLFRTEPMAWNETADLGLDIGAQGEPLGYRQDDPSYRSFHSGGYGQDALGMDPMMEHEMGGHHPGADYPVDGLPDLGHAQDLMDGLPPGDSNQLAWFDTDL
modifications: O-GlcNAc at varying levels (raised by the DS aptamer 3JB8F+12); sites not fully mapped
notes: Endogenous protein detected in fixed cells (PLA) or cell lysate (Co-IP) with an anti-β-catenin antibody; HEK293T is a human cell line; also called endogenous β-catenin

B2: T1 with 3' A28 tail (ssRNA)
RNA: GGGAGAAUCACUUACGGAUCCUCGUUAAGUGGCUCUCAGUCGCCCGUAACUCCGAUGCCGAUGCAGCGGCGACAACUGCACCCAAGGCUCGGAAGCUU
Kd [3]: 60.5 nM

B3: T1 (ssRNA)
RNA: B2 RNA
Kd [4]: ~60 nM

B4: bc339 with 3' A28 tail (ssRNA)
RNA: AGCUUCUGGGCGGCGAUGAGAUGACGUGUGCGGUGGUCGAGAGGUACCUUGGGUGAGGGAAGGGAAGGGAGGUUGACCACUGCGUGACUGCCCAGAAGCU
Kd [5]: 16 nM
